PMC6270503, “The Clip-Segment of the von Willebrand Domain 1 of the BMP Modulator Protein Crossveinless 2 Is Preformed” (Molecules, 2013)

Target: T1, E. coli derived recombinant human BMP-2 (human, UniProt P12643 283-396)
T1 construct: Bone morphogenetic protein 2, human, recombinant from E. coli; also called bone morphogenetic protein 2
Test: SPR; ProteON XPR36, GLC chip; BMP-2 immobilised by amine coupling (1000-2000 RU), CV2 VWC1 proteins as analytes in six concentrations; 25 °C, HBST500 (10 mM HEPES pH 7.4, 500 mM NaCl, 0.005% Tween20); global Langmuir 1:1 fit, KD = koff/kon, or from dose-dependency of equilibrium binding for weak or fast binders; apparent KD
Details: both partners purified

T1 sequence (P12643 283-396): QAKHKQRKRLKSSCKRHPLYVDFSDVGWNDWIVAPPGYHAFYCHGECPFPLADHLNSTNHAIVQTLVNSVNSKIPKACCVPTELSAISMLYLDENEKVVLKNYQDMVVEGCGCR

Kd: ≥ 3.3 µM
koff: ≥ 0.05 s⁻¹
B1: CV2 VWC1 C9A/C31A (domain or fragment)
chain: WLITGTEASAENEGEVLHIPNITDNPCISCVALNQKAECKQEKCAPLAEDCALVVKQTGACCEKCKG
modifications: Mature numbering = entity position minus 3 (C9A/C31A = C12A/C34A). Introduced N-terminal Trp kept; vector Gly-Ser left out. Remaining native disulfides, including Cys26-Cys60, Cys43-Cys61 and …
